± gives the uncertainty stated by the source.
Experiment: self-splicing fitness, log relative to wild type (ln ratio); higher = more splicing; Tetrahymena group I intron in knt gene, E. coli kanamycin selection, DiMSum; sequences stand for … in CUCUCU…GGAGGGAAAAGUUAUCAGGCAUGCACCUGGUAGCUAGUCUUUAAACCAAUAGAUUGCAUCGGUUUAAAAGGCAAGACCGUCAAAUUGCGGGAAAGGGGUCAACAGCCGUUCAGUACCAAGUCUCAGGGGAAACUUUGAGAUGGCCUUGCAAAGGGUAUGGUAAUAAGCUGACGGACAUGGUCCUAACCACGCAGCCAAGUCCUAAGUCAACAGAUCUUCUGUUGAUAUGGAUGCAGUUCACAGACUAAAUGUCGGUCGGGGAAGAUGUAUUCUUCUCAUAAGAUAUAGUCGGACCUCUCCUUAAUGGGAGCUAGCGGAUGAAGUGAUGCAACACUGGAGCCGCUGGGAACUAAUUUGUAUGCGAAAGUAUAUUGAUUAGUUUUGGAGUACUCGUGGUCG
Summary of the method: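 Library with all eight P1ex-region intron nucleotides randomised, intron inside the knt kanamycin-resistance gene on pET-22b(+), in E. coli BL21(DE3). Cells grew overnight at 37°C or 30°C on LB agar with or without 25 μg/mL kanamycin (plus 100 μg/mL carbenicillin, 50 μM IPTG, 0.2% rhamnose), in six replicate transformations. Pooled colonies were amplicon-sequenced on Illumina HiSeq 2500. DiMSum fitness is the error-weighted combination of wild-type-normalised replicate fold changes, kanamycin versus none.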

| Sequence | self-splicing fitness (ln) (30 °C) | self-splicing fitness (ln) (37 °C) |
| --- | --- | --- |
| UAUUAGCAAUAUUACGGCGC | -1.74 ± 0.13 | -0.453 ± 0.17 |
| UAUUAGCAAUAUUACGGCUC | -0.997 ± 0.4 | 0.595 ± 0.44 |
| UAUUAGCAAUAUUACGGCUU | -1.35 ± 0.13 | -0.478 ± 0.17 |
| UAUUAGCAAUAUUACGGGAA | -0.606 ± 0.27 | -1.45 ± 0.31 |
| UAUUAGCAAUAUUACGGGGU | – | -1.52 ± 0.38 |
| UAUUAGCAAUAUUACGUAAA | -2.63 ± 0.25 | -1.09 ± 0.38 |
| UAUUAGCAAUAUUACGUCCU | -1.69 ± 0.2 | -0.635 ± 0.21 |
| UAUUAGCAAUAUUACGUUGC | -3.57 ± 0.31 | -2.59 ± 0.25 |
| UAUUAGCAAUAUUACGUUGU | -3.93 ± 0.34 | -3.04 ± 0.4 |
| UCAAAGCAAUAUUACGAGAA | -3.28 ± 0.34 | -1.48 ± 0.25 |
| UCAAAGCAAUAUUACGAGCG | -0.712 ± 0.088 | -0.172 ± 0.11 |
| UCAAAGCAAUAUUACGAGUC | -3.79 ± 0.21 | -2.26 ± 0.22 |
| UCAAAGCAAUAUUACGCAAC | -4.31 ± 0.42 | – |
| UCAAAGCAAUAUUACGCGAU | – | -1.64 ± 0.23 |
| UCAAAGCAAUAUUACGCGCA | -0.442 ± 0.066 | -0.207 ± 0.077 |
| UCAAAGCAAUAUUACGCGCG | -0.683 ± 0.082 | 0.256 ± 0.097 |
| UCAAAGCAAUAUUACGCGGG | -3.64 ± 0.19 | -2.14 ± 0.16 |
| UCAAAGCAAUAUUACGCUAG | -1.25 ± 0.076 | -1.29 ± 0.1 |
| UCAAAGCAAUAUUACGGAGU | -3.11 ± 0.13 | -1.69 ± 0.14 |
| UCAAAGCAAUAUUACGGCAU | -2.94 ± 0.14 | -2.75 ± 0.14 |
| UCAAAGCAAUAUUACGGCCU | – | -1.28 ± 0.17 |
| UCAAAGCAAUAUUACGGCGA | -0.708 ± 0.074 | -0.462 ± 0.068 |
| UCAAAGCAAUAUUACGGGGU | -3.42 ± 0.17 | -3.33 ± 0.26 |
| UCAAAGCAAUAUUACGGGUA | -0.981 ± 0.096 | 0.505 ± 0.093 |
| UCAAAGCAAUAUUACGUAAU | -4.1 ± 0.21 | -3.66 ± 0.21 |

| Sequence | self-splicing fitness (ln) (30 °C) | self-splicing fitness (ln) (37 °C) |
| --- | --- | --- |
| UCAAAGCAAUAUUACGUGGC | -3.62 ± 0.32 | -2.45 ± 0.32 |
| UCAAAGCAAUAUUACGUGUA | -1.78 ± 0.07 | -0.388 ± 0.066 |
| UCAAAGCAAUAUUACGUUUA | -2.71 ± 0.16 | -2.51 ± 0.18 |
| UCACAGCAAUAUUACGAAAC | -3.36 ± 0.37 | -2.7 ± 0.25 |
| UCACAGCAAUAUUACGAAGG | -1.55 ± 0.097 | -0.755 ± 0.12 |
| UCACAGCAAUAUUACGACUC | -3.43 ± 0.12 | -1.44 ± 0.13 |
| UCACAGCAAUAUUACGAGGA | -1.73 ± 0.13 | -1.65 ± 0.13 |
| UCACAGCAAUAUUACGAGUG | -2.04 ± 0.09 | -0.607 ± 0.09 |
| UCACAGCAAUAUUACGAUCU | -2.71 ± 0.1 | -1.78 ± 0.11 |
| UCACAGCAAUAUUACGCAAG | -2.65 ± 0.17 | -1.11 ± 0.15 |
| UCACAGCAAUAUUACGCACA | -0.445 ± 0.088 | -0.743 ± 0.12 |
| UCACAGCAAUAUUACGCAGG | -3.13 ± 0.13 | -1.52 ± 0.11 |
| UCACAGCAAUAUUACGCAGU | -4.13 ± 0.21 | -2.17 ± 0.16 |
| UCACAGCAAUAUUACGCAUA | -2.02 ± 0.097 | -1.68 ± 0.093 |
| UCACAGCAAUAUUACGCAUG | -2.04 ± 0.098 | -1.58 ± 0.098 |
| UCACAGCAAUAUUACGCUUC | -4.3 ± 0.43 | -3.28 ± 0.43 |
| UCACAGCAAUAUUACGGACG | -1.22 ± 0.073 | -0.222 ± 0.091 |
| UCACAGCAAUAUUACGGACU | -2.99 ± 0.15 | -2.16 ± 0.14 |
| UCACAGCAAUAUUACGGAGG | -3.27 ± 0.15 | -2.29 ± 0.19 |
| UCACAGCAAUAUUACGGCCU | -3.61 ± 0.25 | -1.99 ± 0.15 |
| UCACAGCAAUAUUACGGGCC | -3.95 ± 0.34 | -2.76 ± 0.33 |
| UCACAGCAAUAUUACGGGCU | -4 ± 0.18 | -3.47 ± 0.16 |
| UCACAGCAAUAUUACGGUAG | -1.18 ± 0.085 | -0.311 ± 0.1 |
| UCACAGCAAUAUUACGUACA | -1.53 ± 0.076 | -0.549 ± 0.075 |
| UCACAGCAAUAUUACGUCAG | -1.59 ± 0.077 | -0.829 ± 0.1 |

| Sequence | self-splicing fitness (ln) (30 °C) | self-splicing fitness (ln) (37 °C) |
| --- | --- | --- |
| UCACAGCAAUAUUACGUUAA | -2.66 ± 0.12 | -1.83 ± 0.11 |
| UCACAGCAAUAUUACGUUUG | -2.21 ± 0.08 | -1.2 ± 0.11 |
| UCAGAGCAAUAUUACGAAAU | -3.56 ± 0.32 | -2.11 ± 0.46 |
| UCAGAGCAAUAUUACGAAGA | – | -2.32 ± 0.42 |
| UCAGAGCAAUAUUACGAAUC | -2.45 ± 0.42 | – |
| UCAGAGCAAUAUUACGAGAU | -3.74 ± 0.33 | -2.09 ± 0.37 |
| UCAGAGCAAUAUUACGAGCU | -2.68 ± 0.38 | -1.58 ± 0.29 |
| UCAGAGCAAUAUUACGAUUC | – | -1.19 ± 0.41 |
| UCAGAGCAAUAUUACGCACG | -3.39 ± 0.29 | -1.37 ± 0.21 |
| UCAGAGCAAUAUUACGCCAA | -2.84 ± 0.25 | -1.74 ± 0.29 |
| UCAGAGCAAUAUUACGCCUA | -2.28 ± 0.25 | -1.61 ± 0.26 |
| UCAGAGCAAUAUUACGCGAC | -3.71 ± 0.42 | – |
| UCAGAGCAAUAUUACGCGAG | -2.24 ± 0.12 | -1.06 ± 0.13 |
| UCAGAGCAAUAUUACGCGGC | – | -3.08 ± 0.4 |
| UCAGAGCAAUAUUACGGCAU | -3.07 ± 0.33 | -1.87 ± 0.29 |
| UCAGAGCAAUAUUACGGCGG | -1.41 ± 0.13 | 0.0537 ± 0.13 |
| UCAGAGCAAUAUUACGGCUC | -4.58 ± 0.34 | -3.36 ± 0.25 |
| UCAGAGCAAUAUUACGGCUG | -2.49 ± 0.19 | -0.448 ± 0.2 |
| UCAGAGCAAUAUUACGGUAG | -3.45 ± 0.24 | -2.39 ± 0.27 |
| UCAGAGCAAUAUUACGGUCA | -1.72 ± 0.18 | -2.42 ± 0.32 |
| UCAGAGCAAUAUUACGUAAA | -2.65 ± 0.15 | -1.95 ± 0.25 |
| UCAGAGCAAUAUUACGUCGC | -3.79 ± 0.37 | -2.41 ± 0.35 |
| UCAGAGCAAUAUUACGUGAG | -0.959 ± 0.054 | -0.838 ± 0.081 |
| UCAGAGCAAUAUUACGUUAC | -3.21 ± 0.37 | -1.55 ± 0.29 |
| UCAGAGCAAUAUUACGUUUA | -3.02 ± 0.25 | -2.6 ± 0.23 |

| Sequence | self-splicing fitness (ln) (30 °C) | self-splicing fitness (ln) (37 °C) |
| --- | --- | --- |
| UCAGAGCAAUAUUACGUUUG | -4.06 ± 0.24 | -2.36 ± 0.26 |
| UCAUAGCAAUAUUACGAAAC | -2.6 ± 0.25 | – |
| UCAUAGCAAUAUUACGACCU | -2.73 ± 0.39 | -0.81 ± 0.26 |
| UCAUAGCAAUAUUACGAGGC | -2.86 ± 0.35 | -1.44 ± 0.2 |
| UCAUAGCAAUAUUACGAGUG | -1.8 ± 0.11 | -0.999 ± 0.11 |
| UCAUAGCAAUAUUACGAUAA | -1.71 ± 0.21 | -0.636 ± 0.19 |
| UCAUAGCAAUAUUACGCCUG | -0.427 ± 0.085 | -0.133 ± 0.11 |
| UCAUAGCAAUAUUACGCGGA | -2.71 ± 0.18 | -0.822 ± 0.11 |
| UCAUAGCAAUAUUACGCUCA | -1.82 ± 0.15 | -0.493 ± 0.15 |
| UCAUAGCAAUAUUACGCUGU | -2.91 ± 0.17 | -1.95 ± 0.24 |
| UCAUAGCAAUAUUACGGACU | -2.63 ± 0.18 | -3.18 ± 0.43 |
| UCAUAGCAAUAUUACGGGAC | -2.96 ± 0.27 | -3.97 ± 0.39 |
| UCAUAGCAAUAUUACGGGGU | -4.08 ± 0.27 | -1.67 ± 0.18 |
| UCAUAGCAAUAUUACGGUAU | – | -2.43 ± 0.28 |
| UCAUAGCAAUAUUACGUAAG | -1.66 ± 0.1 | -1.91 ± 0.15 |
| UCAUAGCAAUAUUACGUAGC | -4.12 ± 0.3 | -0.156 ± 0.15 |
| UCAUAGCAAUAUUACGUAGG | -1.08 ± 0.074 | -1.56 ± 0.096 |
| UCAUAGCAAUAUUACGUAUA | -2.54 ± 0.34 | -2.13 ± 0.28 |
| UCAUAGCAAUAUUACGUAUC | -4.44 ± 0.33 | -3.23 ± 0.24 |
| UCAUAGCAAUAUUACGUCCU | -3.7 ± 0.25 | -1.18 ± 0.14 |
| UCAUAGCAAUAUUACGUGCU | -2.6 ± 0.17 | -1.99 ± 0.11 |
| UCAUAGCAAUAUUACGUGGA | -2.02 ± 0.11 | -1.24 ± 0.093 |
| UCAUAGCAAUAUUACGUGUA | -2.35 ± 0.13 | -1.84 ± 0.14 |
